Results taken from patent US20170355773A1 (PELICAN THERAPEUTICS, published 2017).

T1: TNFRSF25-Fc protein (UniProt Q93038 25-199, biotinylated in the capture ELISA)
T1 construct: also called TNFRSF25-Fc fusion protein; biotinylated antigen protein
T1 sequence (looked up): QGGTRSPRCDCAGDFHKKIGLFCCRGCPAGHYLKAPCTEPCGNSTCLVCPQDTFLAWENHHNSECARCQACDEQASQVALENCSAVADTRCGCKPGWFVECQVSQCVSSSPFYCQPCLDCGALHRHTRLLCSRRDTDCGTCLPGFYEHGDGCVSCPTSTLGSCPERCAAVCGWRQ


Key:
W330-cAb1.hIgG1(35783) = target: T2, W330-cAb1.hIgG1(35783); experiment: ELISA: coated antibody at 5 ug/ml, TNFRSF25 ECD.hFcHis titrated, detection with anti-his-HRP, absorbance at 450 nm; the concentration is that of the TNFRSF25 fusion
T2 construct: Parent hamster anti-TNFRSF25 antibody made chimeric with human IgFc (hIgG1); also called chimeric anti-TNFRSF25 antibody; chimeric parent antibody

TNFRSF25-Fc protein = target: T1, TNFRSF25-Fc protein; experiment: capture ELISA: scFv captured on anti-c-myc antibody, biotinylated TNFRSF25-Fc, streptavidin-HRP, OD450

Row | EC50 (W330-cAb1.hIgG1(35783)) [µg/mL] | EC50 (read off the curve) (TNFRSF25-Fc protein) [µg/mL] | Binder
1 | 4.76 | – | WBP330-hPro1.ECD.hFcHis (non-mutated) (Fc fusion, also called recombinant TNFRSF25 polypeptide; non-mutated WBP330-hPro1.ECD.hFcHis; not shown: human Fc and 6His tag (hFc-6His)) QGGTRSPRCDCAGDFHKKIGLFCCRGCPAGHYLKAPCTEPCGNSTCLVCPQDTFLAWENHHNSECARCQACDEQASQVALENCSAVADTRCGCKPGWFVECQVSQCVSSSPFYCQPCLDCGALHRHTRLLCSRRDTDCGTCLPGFYEHGDGCVSCPTSTLGSCPERCAAVCGWRQMF
2 | – | ~0.08 | 9A5 (combinatorial scFv clone of W3072-z4C12) (scFv, V domains shown) VH: EVQLVESGGGLSQPGNSLQLSCEASGFTFSNHDLNWVRQAPGKGLEWVAYISSASGLISYADAVRGRFTISRDNAKNSLFLQMNNLKSEDTAMYYCARDPAYTGLYALDFWGQGTQVTVSS VL: QPVLTQSPSASASLSGSVKLTCTLSSELSGFTIVWYQQRPDKAPKYVMYLKSDGSHSKGDGIPDRFSGSSSGAHRYLSISNVQSEDDATYFCGAGYTLANQYGWVFGSGTKVTVL
3 | – | ~0.2 | 4B6 (scFv, V domains shown) VH: EVQLVESGGGLSQPGNSLQLSCEASGFTFSNHDLNWVRQAPGKGLEWVAYISSASGLISYADAVRGRFTISRDNAKNSLFLQMNNLKSEDTAMYYCARDPAYTGLYALDFWGQGTQVTVSS VL: QPVLTQSPSASASLSGSVKLTCTLSSELSNYTIVWYQQRPDKAPKYVMYLKSDGSHSKGDGIPDRFSGSSSGAHRYLSISNVQSEDDATYFCGAGYTLANQYGWVFGSGTKVTVL
